This passage reports Kd results from publication PMC9850920.

The target of this data set is T1, METTL16-His6 (full length) (Homo sapiens, UniProt Q86W50).
T1 sequence: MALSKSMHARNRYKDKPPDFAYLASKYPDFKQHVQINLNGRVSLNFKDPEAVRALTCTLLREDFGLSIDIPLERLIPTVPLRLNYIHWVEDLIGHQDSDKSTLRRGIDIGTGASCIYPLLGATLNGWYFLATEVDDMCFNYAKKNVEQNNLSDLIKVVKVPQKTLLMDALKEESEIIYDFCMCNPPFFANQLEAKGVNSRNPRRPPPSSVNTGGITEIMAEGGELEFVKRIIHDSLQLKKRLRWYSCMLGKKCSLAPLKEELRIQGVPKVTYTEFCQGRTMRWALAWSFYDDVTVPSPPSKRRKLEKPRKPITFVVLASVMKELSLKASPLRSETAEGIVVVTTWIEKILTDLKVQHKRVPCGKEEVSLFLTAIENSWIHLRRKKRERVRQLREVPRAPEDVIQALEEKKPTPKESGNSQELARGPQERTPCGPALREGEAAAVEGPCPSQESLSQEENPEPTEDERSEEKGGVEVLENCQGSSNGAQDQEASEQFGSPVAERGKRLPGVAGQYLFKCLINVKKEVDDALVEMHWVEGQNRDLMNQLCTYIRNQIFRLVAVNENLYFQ
In words: MST.

Usually Kd stands for the equilibrium constant for the complex coming apart.

B1: MALAT1 triple helix (structured_RNA)
RNA: GGAAGGUUUUUCUUUUCCUGAGAAAACAACACGUAUUGUUUUCUCAGGUUUUGCUUUUUGGCCUUUUUCUAGCUUAAAAAAAAAAAAAGCAAAA
Consider B1, for which the equilibrium dissociation constant (Kd) amounted to 31 ± 3 nM.
